The values that follow come from publication PMC7906036 (Nature, 2020).

Assay [1] has as its target human ferroportin (wild type) (human) (UniProt Q9NP59). Kind of assay: fluorescence polarisation.
Assay [2] has the same target. Kind of assay: fluorescence polarisation. This is another data set of the same source.
The target is the same in assay [3]. The experiment in a line: fluorescence polarisation. This is another data set of the same source.
Assay [4] concerns the target human ferroportin (wild type) (human, UniProt Q9NP59). The experiment in a line: SEC.
Assay [5] has as its target T1, Rhodamine green-hepcidin (Homo sapiens, not fully specified; rhodamine green at position 17).
T1 chain: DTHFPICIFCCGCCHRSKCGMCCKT
Kind of assay: fluorescence polarisation.

Where two headings read alike, the source gives them in different places.

Chain of human ferroportin (wild type) (human) (Q9NP59 whole entry): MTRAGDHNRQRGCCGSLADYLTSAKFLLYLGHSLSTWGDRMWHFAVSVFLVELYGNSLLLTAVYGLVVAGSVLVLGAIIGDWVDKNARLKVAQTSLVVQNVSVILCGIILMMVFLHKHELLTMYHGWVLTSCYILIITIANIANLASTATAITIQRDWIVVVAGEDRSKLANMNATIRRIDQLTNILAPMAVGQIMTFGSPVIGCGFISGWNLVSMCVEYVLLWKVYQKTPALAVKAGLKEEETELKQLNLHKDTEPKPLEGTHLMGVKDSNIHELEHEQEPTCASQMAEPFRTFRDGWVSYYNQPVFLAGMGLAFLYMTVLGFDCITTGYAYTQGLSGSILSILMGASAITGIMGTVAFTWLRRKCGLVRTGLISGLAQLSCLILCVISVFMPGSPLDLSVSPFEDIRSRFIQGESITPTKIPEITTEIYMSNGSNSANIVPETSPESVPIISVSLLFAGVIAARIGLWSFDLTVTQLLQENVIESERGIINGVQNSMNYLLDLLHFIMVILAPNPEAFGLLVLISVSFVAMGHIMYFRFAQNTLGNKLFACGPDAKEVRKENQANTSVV
Chain of human ferroportin (wild type) (Q9NP59 whole entry): as above

In the case of Rhodamine green-hepcidin (peptide), the dissociation constant (Kd) in assay [1] is 2.5 nM; in assay [2], 7.7 nM; in assay [3], 210 nM.

B1: Fab45D8 (Fab, V domains shown)
VH: EVQLQESGPGLAKPSQTLSLTCSVTGSSITSDYWNWIRKFPGNKLEYMGYISYSGSTYYNPSLKSQISITRDTSKNHYYLQLNSVTTEDTATYYCARQGLRNWYFDVWGTGTTVTVSS
VL: DIVLTQSPASLPVSLGQRATISCRASKSVSASAYSYMHWYQQKPGQPPKPLIYLASNLESGVPARFSGSGSGTDFTLNIHPVEEEDAATYYCQHNRELPYTFGGGTKLEIK
With B1, the binding result in assay [4] is recorded as “binds”; in assay [5], “no binding”.
